Drawing on paper PMC6547453 (2019), this text covers Kd for two molecules.

The target in one experiment is T1, EsCas13d ([Eubacterium] siraeum DSM 15702).
T1 chain: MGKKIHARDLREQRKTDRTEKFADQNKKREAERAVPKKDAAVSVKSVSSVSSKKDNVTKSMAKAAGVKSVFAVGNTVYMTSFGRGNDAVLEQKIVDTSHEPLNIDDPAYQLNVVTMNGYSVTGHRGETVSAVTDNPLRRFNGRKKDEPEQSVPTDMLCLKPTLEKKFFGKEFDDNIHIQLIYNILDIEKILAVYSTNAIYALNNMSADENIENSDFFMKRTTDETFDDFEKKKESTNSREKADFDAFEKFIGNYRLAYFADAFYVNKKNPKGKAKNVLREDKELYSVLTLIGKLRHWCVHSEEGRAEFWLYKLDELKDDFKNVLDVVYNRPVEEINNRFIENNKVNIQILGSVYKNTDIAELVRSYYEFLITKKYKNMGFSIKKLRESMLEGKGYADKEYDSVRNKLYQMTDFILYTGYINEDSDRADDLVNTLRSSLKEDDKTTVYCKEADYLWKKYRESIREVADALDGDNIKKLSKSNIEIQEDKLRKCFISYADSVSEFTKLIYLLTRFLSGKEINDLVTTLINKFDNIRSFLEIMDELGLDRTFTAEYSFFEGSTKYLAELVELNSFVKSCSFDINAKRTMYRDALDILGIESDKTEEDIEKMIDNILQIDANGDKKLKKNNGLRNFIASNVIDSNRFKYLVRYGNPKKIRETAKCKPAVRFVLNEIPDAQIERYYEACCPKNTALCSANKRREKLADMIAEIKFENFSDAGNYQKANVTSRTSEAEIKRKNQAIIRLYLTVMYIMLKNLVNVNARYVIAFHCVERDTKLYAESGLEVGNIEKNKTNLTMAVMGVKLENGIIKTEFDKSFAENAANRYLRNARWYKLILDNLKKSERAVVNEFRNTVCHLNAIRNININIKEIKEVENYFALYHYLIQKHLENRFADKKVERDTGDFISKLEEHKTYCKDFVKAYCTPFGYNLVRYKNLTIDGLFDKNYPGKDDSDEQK
As to the kind of experiment: ITC. In general terms: Isothermal titration calorimetry measures the heat released or taken up as one component is titrated into another.

In the next experiment the target is RspCas13d (Ruminococcus sp. (from the prefix Rsp, …)). As to the kind of experiment: ITC.

B1: full-length RspWYL1 (Ruminococcus sp. WYL1, amino acids 1–392) (natural protein)
chain: MLIPPSTFLPKRDKNVPYIAEVQSIPLSPSAYSVIIKDKSIFETSLSPNGSVSMSSFLTSIFDSAYIASLKYKSDDNYKYIGIPLLNAFVEWQIEEIDDSLDDKSKEIIKSYLISKLSAKYEKTKTENAVRVRLSICRDLYDTLSSDDLYYENKVYSLTLRRFLKAVYEDYALLSDCERERLIFADNIIKINEVIKQNGSRYYSFIYAYSNMYSREKRRIRLIPYRIVSDEYKMYNYLVCLSDEKSAGKEFKADSYRISRLSGLSIAEKLSQKEYSSVTEYERLKEGHVKSVKHLLSDPRFGSDESDISKVYLTEKGVEMFRKILYQRPILKGNEKPKPNTVNEFISPPIQVKYYFNKFGKDGVILSPSDSFEEMRTLYVEGADAYNREVEM
modifications: apo (no crRNA); full length assumed, since limits are not given; 954 aa matches the known EsCas13d length
As a reminder, the Kd is the concentration at which binding is half-saturated. Low readings indicate a tighter complex, high ones a looser complex. For the molecule B1, the Kd with EsCas13d was around 270 µM.

B2: full-length RspWYL1 (Ruminococcus sp. WYL1, amino acids 1–392) (natural protein)
chain: B1 chain
Molecule B2 returned a Kd with RspCas13d of around 250 µM.
